Laboratory results reported in paper PMC2150699 (The Journal of Cell Biology, 2000).

Tests used:
[1] = molecular target: HT-WG (hexahistidine-tagged WG fragment of N-WASP, amino acids 1-277) (bovine, UniProt Q95107 1-277); assay: pull-down
[2] = molecular target: HT-WGP (hexahistidine-tagged WGP fragment of N-WASP, amino acids 1-396) (bovine, UniProt Q95107 1-396); assay: pull-down
Sequence of HT-WGP (hexahistidine-tagged WGP fragment of N-WASP, amino acids 1-396) (Q95107 1-396): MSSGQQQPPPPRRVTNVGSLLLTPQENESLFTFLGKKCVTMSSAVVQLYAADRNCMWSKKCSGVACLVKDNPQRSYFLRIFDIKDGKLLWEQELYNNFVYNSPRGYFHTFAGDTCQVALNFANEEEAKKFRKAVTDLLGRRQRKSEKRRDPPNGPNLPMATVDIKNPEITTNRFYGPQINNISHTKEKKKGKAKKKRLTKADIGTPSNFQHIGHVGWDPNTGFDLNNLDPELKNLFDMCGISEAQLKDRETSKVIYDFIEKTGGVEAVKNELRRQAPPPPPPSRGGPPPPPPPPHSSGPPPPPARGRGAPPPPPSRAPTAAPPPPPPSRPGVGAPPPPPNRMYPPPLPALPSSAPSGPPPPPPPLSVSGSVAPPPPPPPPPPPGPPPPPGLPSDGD

Sequence of HT-WG (hexahistidine-tagged WG fragment of N-WASP, amino acids 1-277) (Q95107 1-277): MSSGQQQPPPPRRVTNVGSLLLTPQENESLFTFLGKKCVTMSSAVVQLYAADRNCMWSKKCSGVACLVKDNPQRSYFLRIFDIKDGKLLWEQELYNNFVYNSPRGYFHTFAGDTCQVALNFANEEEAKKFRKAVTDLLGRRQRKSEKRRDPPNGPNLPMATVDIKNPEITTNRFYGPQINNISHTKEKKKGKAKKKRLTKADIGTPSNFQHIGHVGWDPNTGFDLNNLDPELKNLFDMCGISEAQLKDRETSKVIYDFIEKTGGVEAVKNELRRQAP

binding result [1]: binds | binding result [2]: binds
B1: GST-VCA (GST fusion of the COOH-terminal VCA segment of bovine N-WASP, amino acids 392-505) (domain or fragment, UniProt Q95107 392-505, looked up)
chain: PSDGDHQVPTPAGSKAALLDQIREGAQLKKVEQNSRPVSCSGRDALLDQIRQGIQLKSVTDAPESTPPAPAPTSGIVGALMEVMQKRSKAIHSSDEDEDEDDDEDFEDDDEWED
